Tests used:
[1] = molecular target: TLR-2 in which His-tag was added to the N-terminus (His-tag-added TLR-2); test: pull-down of HMGB1 (2 ug) with His-tag-added TLR-2 (2 ug) on Co2+ agarose beads, Western blot with anti-HMGB1 antibody; tRNA added, in the presence of 2 ug of RNA aptamer R8c6_1-18 as inhibitor
[2] = molecular target: TLR-2 in which His-tag was added to the N-terminus (His-tag-added TLR-2); test: pull-down of HMGB1 (2 ug) with His-tag-added TLR-2 (2 ug) on Co2+ agarose beads, Western blot with anti-HMGB1 antibody; tRNA added, in the presence of 1 ug of RNA aptamer R8c6_1-18 as inhibitor
[3] = molecular target: TLR-2 in which His-tag was added to the N-terminus (His-tag-added TLR-2); test: pull-down of HMGB1 (2 ug) with His-tag-added TLR-2 (2 ug) on Co2+ agarose beads, Western blot with anti-HMGB1 antibody; lane '-': no tRNA, no RNA aptamer
[4] = molecular target: TLR-2 in which His-tag was added to the N-terminus (His-tag-added TLR-2); test: pull-down of HMGB1 (2 ug) with His-tag-added TLR-2 (2 ug) on Co2+ agarose beads, Western blot with anti-HMGB1 antibody; tRNA added, in the presence of 1 ug of 40N RNA library (comparative example)
[5] = molecular target: TLR-2 in which His-tag was added to the N-terminus (His-tag-added TLR-2); test: pull-down of HMGB1 (2 ug) with His-tag-added TLR-2 (2 ug) on Co2+ agarose beads, Western blot with anti-HMGB1 antibody; lane '+': tRNA added, no RNA aptamer (reference lane, set to 100)
[6] = molecular target: TLR-2 in which His-tag was added to the N-terminus (His-tag-added TLR-2); test: pull-down of HMGB1 (2 ug) with His-tag-added TLR-2 (2 ug) on Co2+ agarose beads, Western blot with anti-HMGB1 antibody; tRNA added, in the presence of 2 ug of 40N RNA library (comparative example)
[7] = molecular target: TLR-2 in which His-tag was added to the N-terminus (His-tag-added TLR-2); test: pull-down of HMGB1 (2 ug) with His-tag-added TLR-2 (2 ug) on Co2+ agarose beads, Western blot with anti-HMGB1 antibody; tRNA added, in the presence of 4 ug of 40N RNA library (comparative example)
[8] = molecular target: TLR-2 in which His-tag was added to the N-terminus (His-tag-added TLR-2); test: pull-down of HMGB1 (2 ug) with His-tag-added TLR-2 (2 ug) on Co2+ agarose beads, Western blot with anti-HMGB1 antibody; tRNA added, in the presence of 4 ug of RNA aptamer R8c6_1-18 as inhibitor

Chain of TLR-2 in which His-tag was added to the N-terminus (His-tag-added TLR-2) (O60603 whole entry): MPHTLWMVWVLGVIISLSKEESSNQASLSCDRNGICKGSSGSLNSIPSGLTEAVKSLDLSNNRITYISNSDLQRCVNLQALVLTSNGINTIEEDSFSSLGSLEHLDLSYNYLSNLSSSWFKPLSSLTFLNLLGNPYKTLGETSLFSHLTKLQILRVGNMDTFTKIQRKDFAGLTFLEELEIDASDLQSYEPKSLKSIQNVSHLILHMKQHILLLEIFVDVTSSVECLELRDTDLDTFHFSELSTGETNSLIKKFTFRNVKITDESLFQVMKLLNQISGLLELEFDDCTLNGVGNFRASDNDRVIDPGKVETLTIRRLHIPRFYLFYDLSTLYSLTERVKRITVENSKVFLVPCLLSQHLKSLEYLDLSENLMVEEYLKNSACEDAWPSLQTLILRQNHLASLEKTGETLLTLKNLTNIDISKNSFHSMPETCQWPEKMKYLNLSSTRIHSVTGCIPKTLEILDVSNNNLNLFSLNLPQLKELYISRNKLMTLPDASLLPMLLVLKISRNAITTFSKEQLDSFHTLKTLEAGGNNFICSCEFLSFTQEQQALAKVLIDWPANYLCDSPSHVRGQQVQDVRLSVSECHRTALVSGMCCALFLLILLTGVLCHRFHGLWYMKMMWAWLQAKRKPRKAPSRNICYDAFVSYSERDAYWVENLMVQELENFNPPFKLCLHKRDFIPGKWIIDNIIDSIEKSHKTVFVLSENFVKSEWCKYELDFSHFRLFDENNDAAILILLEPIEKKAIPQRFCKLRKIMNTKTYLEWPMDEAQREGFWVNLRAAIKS
Chain of HMGB1 protein (High-mobility group box 1 protein) (ligand) (P09429 whole entry): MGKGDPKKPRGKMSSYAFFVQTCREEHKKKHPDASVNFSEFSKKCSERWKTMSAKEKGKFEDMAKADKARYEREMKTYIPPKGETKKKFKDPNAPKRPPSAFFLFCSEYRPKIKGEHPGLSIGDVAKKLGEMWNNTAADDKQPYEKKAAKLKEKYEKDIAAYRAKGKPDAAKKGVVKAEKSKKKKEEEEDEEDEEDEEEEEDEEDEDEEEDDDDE

An HMGB1/TLR-2 (HMGB1 band corrected for TLR-2, relative to lane '+' = 100) [1] of 61, an HMGB1/TLR-2 (HMGB1 band corrected for TLR-2, relative to lane '+' = 100) [2] of 113 and an HMGB1/TLR-2 (HMGB1 band corrected for TLR-2, relative to lane '+' = 100) [3] of 60 were found for “HMGB1 protein (High-mobility group box 1 protein) (ligand)” in this work. The HMGB1/TLR-2 (HMGB1 band corrected for TLR-2, relative to lane '+' = 100) [4] was 108, the HMGB1/TLR-2 (HMGB1 band corrected for TLR-2, relative to lane '+' = 100) [5] was 100 and the HMGB1/TLR-2 (HMGB1 band corrected for TLR-2, relative to lane '+' = 100) [6] was 84. For the same substance, the HMGB1/TLR-2 (HMGB1 band corrected for TLR-2, relative to lane '+' = 100) [7] was 85 and the HMGB1/TLR-2 (HMGB1 band corrected for TLR-2, relative to lane '+' = 100) [8] was 29.
